{"source": "patent US9050248B2", "about": "“Methods of delivering stable topical drug compositions” (Transdermal Biotechnology, Inc., priority 2002, dated 2015)", "key": {"[1]": {"test": "Skin penetration on topical application of somatotropin composition", "conditions": "composition topically applied", "protocol": "A drug delivery composition formulated with somatotropin was formulated in one trial with 85% phosphatidylcholine to which lipoic acid and ascorbyl palmitate were added."}, "[2]": {"test": "Storage stability of insulin by RP-HPLC and HPCE (Example 2)", "format": "physicochemical"}, "[3]": {"test": "Storage stability of insulin by RP-HPLC and HPCE (Example 1)", "format": "physicochemical", "conditions": "stored at room temperature", "protocol": "This mixture was then divided in half, half of which was stored at 4° C., and the other half stored at room temperature."}}, "data": [{"substance": "Somatotropin: pituitary growth hormone, formulated with 85% phosphatidylcholine, lipoic acid and ascorbyl palmitate", "values": [{"measurement": "skin penetration", "setting": "[1]", "result": "appeared to penetrate the skin well"}]}, {"substance": "insulin standards: recombinant human insulin in 0.01 N HCl, 1 mg/ml (Example 1) or 5 mg/ml (Example 2)", "values": [{"measurement": "time stable (RP-HPLC and HPCE)", "setting": "[2]; stored at 4° C.", "result": 22, "unit": "weeks"}, {"measurement": "time at which denaturing started", "setting": "[2]; stored at room temperature", "result": "≤ 1", "unit": "week"}, {"measurement": "time at which denaturing started", "setting": "[3]", "result": "≤ 7", "unit": "days"}]}]}
